Key:
Importin β = Importin β (UniProt Q14974); experiment: anti-GFP co-IP, Western blot; conditions: reference: eGFP-HURP wild type; sites S627
Kif5B = Kif5B (UniProt P33176); experiment: anti-GFP co-IP, Western blot; conditions: reference: eGFP-HURP wild type; sites S627

Substance: HURP 1-846 (from UniProt Q15398) eGFP-HURP S627A
- binding against the reference (Importin β): lost
- binding against the reference (Kif5B): lost
